The text below walks through data of paper PMC9930725 (Nature, 2022).

The series “SEC” concerns the molecule itself. Nature of the series: SEC. On the technique in general: In gel filtration, larger molecules generally elute earlier.
The series “thermal reversion rate” concerns the molecule itself. As to the kind of experiment: thermal reversion rate.

B1: Arabidopsis thaliana phytochrome B, full length (natural protein, UniProt P14713 1-1172, looked up)
chain: MVSGVGGSGGGRGGGRGGEEEPSSSHTPNNRRGGEQAQSSGTKSLRPRSNTESMSKAIQQYTVDARLHAVFEQSGESGKSFDYSQSLKTTTYGSSVPEQQITAYLSRIQRGGYIQPFGCMIAVDESSFRIIGYSENAREMLGIMPQSVPTLEKPEILAMGTDVRSLFTSSSSILLERAFVAREITLLNPVWIHSKNTGKPFYAILHRIDVGVVIDLEPARTEDPALSIAGAVQSQKLAVRAISQLQALPGGDIKLLCDTVVESVRDLTGYDRVMVYKFHEDEHGEVVAESKRDDLEPYIGLHYPATDIPQASRFLFKQNRVRMIVDCNATPVLVVQDDRLTQSMCLVGSTLRAPHGCHSQYMANMGSIASLAMAVIINGNEDDGSNVASGRSSMRLWGLVVCHHTSSRCIPFPLRYACEFLMQAFGLQLNMELQLALQMSEKRVLRTQTLLCDMLLRDSPAGIVTQSPSIMDLVKCDGAAFLYHGKYYPLGVAPSEVQIKDVVEWLLANHADSTGLSTDSLGDAGYPGAAALGDAVCGMAVAYITKRDFLFWFRSHTAKEIKWGGAKHHPEDKDDGQRMHPRSSFQAFLEVVKSRSQPWETAEMDAIHSLQLILRDSFKESEAAMNSKVVDGVVQPCRDMAGEQGIDELGAVAREMVRLIETATVPIFAVDAGGCINGWNAKIAELTGLSVEEAMGKSLVSDLIYKENEATVNKLLSRALRGDEEKNVEVKLKTFSPELQGKAVFVVVNACSSKDYLNNIVGVCFVGQDVTSQKIVMDKFINIQGDYKAIVHSPNPLIPPIFAADENTCCLEWNMAMEKLTGWSRSEVIGKMIVGEVFGSCCMLKGPDALTKFMIVLHNAIGGQDTDKFPFPFFDRNGKFVQALLTANKRVSLEGKVIGAFCFLQIPSPELQQALAVQRRQDTECFTKAKELAYICQVIKNPLSGMRFANSLLEATDLNEDQKQLLETSVSCEKQISRIVGDMDLESIEDGSFVLKREEFFLGSVINAIVSQAMFLLRDRGLQLIRDIPEEIKSIEVFGDQIRIQQLLAEFLLSIIRYAPSQEWVEIHLSQLSKQMADGFAAIRTEFRMACPGEGLPPELVRDMFHSSRWTSPEGLGLSVCRKILKLMNGEVQYIRESERSYFLIILELPVPRKRPLSTASGSGDMMLMMPY
modifications: phytochromobilin (PΦB) covalently linked to Cys357
For B1, the “stoichiometry N” value in the series “SEC” turned out to be 2.

B2: PhyB N982 fragment (domain or fragment, Arabidopsis thaliana, UniProt P14713 1-982, looked up)
chain: MVSGVGGSGGGRGGGRGGEEEPSSSHTPNNRRGGEQAQSSGTKSLRPRSNTESMSKAIQQYTVDARLHAVFEQSGESGKSFDYSQSLKTTTYGSSVPEQQITAYLSRIQRGGYIQPFGCMIAVDESSFRIIGYSENAREMLGIMPQSVPTLEKPEILAMGTDVRSLFTSSSSILLERAFVAREITLLNPVWIHSKNTGKPFYAILHRIDVGVVIDLEPARTEDPALSIAGAVQSQKLAVRAISQLQALPGGDIKLLCDTVVESVRDLTGYDRVMVYKFHEDEHGEVVAESKRDDLEPYIGLHYPATDIPQASRFLFKQNRVRMIVDCNATPVLVVQDDRLTQSMCLVGSTLRAPHGCHSQYMANMGSIASLAMAVIINGNEDDGSNVASGRSSMRLWGLVVCHHTSSRCIPFPLRYACEFLMQAFGLQLNMELQLALQMSEKRVLRTQTLLCDMLLRDSPAGIVTQSPSIMDLVKCDGAAFLYHGKYYPLGVAPSEVQIKDVVEWLLANHADSTGLSTDSLGDAGYPGAAALGDAVCGMAVAYITKRDFLFWFRSHTAKEIKWGGAKHHPEDKDDGQRMHPRSSFQAFLEVVKSRSQPWETAEMDAIHSLQLILRDSFKESEAAMNSKVVDGVVQPCRDMAGEQGIDELGAVAREMVRLIETATVPIFAVDAGGCINGWNAKIAELTGLSVEEAMGKSLVSDLIYKENEATVNKLLSRALRGDEEKNVEVKLKTFSPELQGKAVFVVVNACSSKDYLNNIVGVCFVGQDVTSQKIVMDKFINIQGDYKAIVHSPNPLIPPIFAADENTCCLEWNMAMEKLTGWSRSEVIGKMIVGEVFGSCCMLKGPDALTKFMIVLHNAIGGQDTDKFPFPFFDRNGKFVQALLTANKRVSLEGKVIGAFCFLQIPSPELQQALAVQRRQDTECFTKAKELAYICQVIKNPLSGMRFANSLLEATDLNEDQKQLLETSVSCEKQISRIVGD
modifications: phytochromobilin (PΦB) bound
As for B2, the binding result in the series “SEC” is given as “binds”.

B3: PhyB N908 fragment (domain or fragment, Arabidopsis thaliana, UniProt P14713 1-908, looked up)
chain: MVSGVGGSGGGRGGGRGGEEEPSSSHTPNNRRGGEQAQSSGTKSLRPRSNTESMSKAIQQYTVDARLHAVFEQSGESGKSFDYSQSLKTTTYGSSVPEQQITAYLSRIQRGGYIQPFGCMIAVDESSFRIIGYSENAREMLGIMPQSVPTLEKPEILAMGTDVRSLFTSSSSILLERAFVAREITLLNPVWIHSKNTGKPFYAILHRIDVGVVIDLEPARTEDPALSIAGAVQSQKLAVRAISQLQALPGGDIKLLCDTVVESVRDLTGYDRVMVYKFHEDEHGEVVAESKRDDLEPYIGLHYPATDIPQASRFLFKQNRVRMIVDCNATPVLVVQDDRLTQSMCLVGSTLRAPHGCHSQYMANMGSIASLAMAVIINGNEDDGSNVASGRSSMRLWGLVVCHHTSSRCIPFPLRYACEFLMQAFGLQLNMELQLALQMSEKRVLRTQTLLCDMLLRDSPAGIVTQSPSIMDLVKCDGAAFLYHGKYYPLGVAPSEVQIKDVVEWLLANHADSTGLSTDSLGDAGYPGAAALGDAVCGMAVAYITKRDFLFWFRSHTAKEIKWGGAKHHPEDKDDGQRMHPRSSFQAFLEVVKSRSQPWETAEMDAIHSLQLILRDSFKESEAAMNSKVVDGVVQPCRDMAGEQGIDELGAVAREMVRLIETATVPIFAVDAGGCINGWNAKIAELTGLSVEEAMGKSLVSDLIYKENEATVNKLLSRALRGDEEKNVEVKLKTFSPELQGKAVFVVVNACSSKDYLNNIVGVCFVGQDVTSQKIVMDKFINIQGDYKAIVHSPNPLIPPIFAADENTCCLEWNMAMEKLTGWSRSEVIGKMIVGEVFGSCCMLKGPDALTKFMIVLHNAIGGQDTDKFPFPFFDRNGKFVQALLTANKRVSLEGKVIGAFCFLQIPS
modifications: phytochromobilin (PΦB) bound
With B3, the Kd in the series “thermal reversion rate” was ~26 nM.

B4: PhyB N908(L427A) (domain or fragment, Arabidopsis thaliana, UniProt P14713 1-908, looked up)
chain: MVSGVGGSGGGRGGGRGGEEEPSSSHTPNNRRGGEQAQSSGTKSLRPRSNTESMSKAIQQYTVDARLHAVFEQSGESGKSFDYSQSLKTTTYGSSVPEQQITAYLSRIQRGGYIQPFGCMIAVDESSFRIIGYSENAREMLGIMPQSVPTLEKPEILAMGTDVRSLFTSSSSILLERAFVAREITLLNPVWIHSKNTGKPFYAILHRIDVGVVIDLEPARTEDPALSIAGAVQSQKLAVRAISQLQALPGGDIKLLCDTVVESVRDLTGYDRVMVYKFHEDEHGEVVAESKRDDLEPYIGLHYPATDIPQASRFLFKQNRVRMIVDCNATPVLVVQDDRLTQSMCLVGSTLRAPHGCHSQYMANMGSIASLAMAVIINGNEDDGSNVASGRSSMRLWGLVVCHHTSSRCIPFPLRYACEFLMQAFGAQLNMELQLALQMSEKRVLRTQTLLCDMLLRDSPAGIVTQSPSIMDLVKCDGAAFLYHGKYYPLGVAPSEVQIKDVVEWLLANHADSTGLSTDSLGDAGYPGAAALGDAVCGMAVAYITKRDFLFWFRSHTAKEIKWGGAKHHPEDKDDGQRMHPRSSFQAFLEVVKSRSQPWETAEMDAIHSLQLILRDSFKESEAAMNSKVVDGVVQPCRDMAGEQGIDELGAVAREMVRLIETATVPIFAVDAGGCINGWNAKIAELTGLSVEEAMGKSLVSDLIYKENEATVNKLLSRALRGDEEKNVEVKLKTFSPELQGKAVFVVVNACSSKDYLNNIVGVCFVGQDVTSQKIVMDKFINIQGDYKAIVHSPNPLIPPIFAADENTCCLEWNMAMEKLTGWSRSEVIGKMIVGEVFGSCCMLKGPDALTKFMIVLHNAIGGQDTDKFPFPFFDRNGKFVQALLTANKRVSLEGKVIGAFCFLQIPS
modifications: phytochromobilin (PΦB) bound
As to B4, in “SEC”, the binding result was “binds”.

What is called stoichiometry N is a count of units in the complex or per binding partner. Usually Kd stands for the equilibrium constant for the complex coming apart. Read a high Kd as lower affinity.
